{"source": "the supplement of paper PMC5998384", "key": {"HeLa Kyoto [1]": {"system": "HeLa Kyoto", "assay": "solubility in G1/S (NP-40 vs SDS abundance) (log2 ratio); higher = more soluble", "conditions": "cell cycle stage: G1/S"}, "HeLa Kyoto [2]": {"system": "HeLa Kyoto", "assay": "melting temperature (median over replicates), in situ; higher = more thermally stable"}, "HeLa Kyoto [3]": {"system": "HeLa Kyoto", "assay": "solubility change mitosis vs G1/S (difference of NP-40 vs SDS log2 ratios) (log2 ratio difference); higher = more soluble in mitosis"}, "HeLa Kyoto [4]": {"system": "HeLa Kyoto", "assay": "thermal stability score vs G1/S (z-score of summed log2 fold changes over temperatures); higher = more thermally stable than in G1/S"}, "[5]": {"conditions": "cell cycle stage: early G1 (4.5 h after nocodazole release)"}}, "data": [{"sequence": "MMEESGIETTPPGTPPPNPAGLAATAMSSTPVPLAATSSFSSPNVSSMESFPPLAYSTPQPPLPPVRPSAPLPFVPPPAVPSVPPLVTSMPPPVSPSTAAAFGNPPVSHFPPSTSAPNTLLPAPPSGPPISGFSVGSTYDITRGHAGRAPQTPLMPSFSAPSGTGLLPTPITQQASLTSLAQGTGTTSAITFPEEQEDPRITRGQDEASAGGIWGFIKGVAGNPMVKSVLDKTKHSVESMITTLDPGMAPYIKSGGELDIVVTSNKEVKVAAVRDAFQEVFGLAVVVGEAGQSNIAPQPVGYAAGLKGAQERIDSLRRTGVIHEKQTAVSVENFIAELLPDKWFDIGCLVVEDPVHGIHLETFTQATPVPLEFVQQAQSLTPQDYNLRWSGLLVTVGEVLEKSLLNVSRTDWHMAFTGMSRRQMIYSAARAIAGMYKQRLPPRTV [PRRC1]", "values": [{"measurement": "solubility in G1/S (log2)", "setting": "HeLa Kyoto [1]", "result": 0.495}, {"measurement": "melting temperature", "setting": "HeLa Kyoto [2]; cell cycle stage: G1/S", "result": 58.8, "unit": "°C"}, {"measurement": "melting temperature", "setting": "HeLa Kyoto [2]; cell cycle stage: mitosis", "result": 58, "unit": "°C"}, {"measurement": "solubility change mitosis (log2)", "setting": "HeLa Kyoto [3]", "result": -0.346}, {"measurement": "thermal stability score", "setting": "HeLa Kyoto [4]; [5]", "result": -1.27}, {"measurement": "thermal stability score", "setting": "HeLa Kyoto [4]; cell cycle stage: mitosis", "result": -1.08}]}, {"sequence": "MMEGLDDGPDFLSEEDRGLKAINVDLQSDAALQVDISDALSERDKVKFTVHTKSSLPNFKQNEFSVVRQHEEFIWLHDSFVENEDYAGYIIPPAPPRPDFDASREKLQKLGEGEGSMTKEEFTKMKQELEAEYLAIFKKTVAMHEVFLCRVAAHPILRRDLNFHVFLEYNQDLSVRGKNKKEKLEDFFKNMVKSADGVIVSGVKDVDDFFEHERTFLLEYHNRVKDASAKSDRMTRSHKSAADDYNRIGSSLYALGTQDSTDICKFFLKVSELFDKTRKIEARVSADEDLKLSDLLKYYLRESQAAKDLLYRRSRSLVDYENANKALDKARAKNKDVLQAETSQQLCCQKFEKISESAKQELIDFKTRRVAAFRKNLVELAELELKHAKGNLQLLQNCLAVLNGDT [SNX6]", "values": [{"measurement": "solubility in G1/S (log2)", "setting": "HeLa Kyoto [1]", "result": 0.426}, {"measurement": "melting temperature", "setting": "HeLa Kyoto [2]; cell cycle stage: G1/S", "result": 51.1, "unit": "°C"}, {"measurement": "melting temperature", "setting": "HeLa Kyoto [2]; cell cycle stage: mitosis", "result": 50.1, "unit": "°C"}, {"measurement": "solubility change mitosis (log2)", "setting": "HeLa Kyoto [3]", "result": -0.0637}, {"measurement": "thermal stability score", "setting": "HeLa Kyoto [4]; [5]", "result": 1.82}, {"measurement": "thermal stability score", "setting": "HeLa Kyoto [4]; cell cycle stage: mitosis", "result": 0.524}]}, {"sequence": "MMPGPRPRKGPQARGQGVAAAKQMGLFMEFGPEDMLLGMDEAEDDEDLEAELLALTGEAQTTGKKPAPKGQAPLPMAHIEKLAADCMRDVEEEEEEEGLEEDAELLTELQEVLGVDEETEPLDGDEVADPGGSEEENGLEDTEPPVQTAVLTASAPAAQAGASQGLHALLEERIHNYREAAASAKEAGEAAKARRCERGLKTLESQLASVRRGRKINEDEIPPPVALGKRPLAPQEPANRSPETDPPAPPALESDNPSQPETSLPGISAQPVSDLDPDPRALLSSRQREYKVAALSAKRAGELDRARELMRIGKRFGAVLEALEKGQPVDLSAMPPAPEDLKPQQASQAPTAPSVIPPAVERVQPVMAPDVPATPVAPTESQTVLDALQQRLNKYREAGIQARSGGDERKARMHERIAKQYQDAIRAHRAGRKVNFAELPVPPGFPPIPGLESTMGVEEDAVAATLAAAEKLASAEDSAPADKDEDEPPGHLQGEPPAQAPVAKKPARPTVPSSQRLPEPRASSSKESPSPSVREQLALLEARKLQYQRAALQAKRSQDLEQAKAYLRVAKWLEAQIIQARSGRPVDLSKVPSPLTDEEGDFILIHHEDLRLSQKAEEVYAQLQKMLLEQQEKCLLFSKQFMHQGNVAETTRFEKLAQDRKKQLEILQLAQAQGLDPPTHHFELKTFQTVRIFSELNSTEMHLIIVRGMNLPAPPGVTPDDLDAFVRFEFHYPNSDQAQKSKTAVVKNTNSPEFDQLFKLNINRNHRGFKRVIQSKGIKFEIFHKGSFFRSDKLVGTAHLKLERLENECEIREIVEVLDGRKPTGGKLEVKVRLREPLSGQDVQMVTENWLVLEPRGL [CC2D1B]", "values": [{"measurement": "solubility in G1/S (log2)", "setting": "HeLa Kyoto [1]", "result": 0.252}, {"measurement": "melting temperature", "setting": "HeLa Kyoto [2]; cell cycle stage: G1/S", "result": 50.4, "unit": "°C"}, {"measurement": "melting temperature", "setting": "HeLa Kyoto [2]; cell cycle stage: mitosis", "result": 50.3, "unit": "°C"}, {"measurement": "solubility change mitosis (log2)", "setting": "HeLa Kyoto [3]", "result": -0.000596}, {"measurement": "thermal stability score", "setting": "HeLa Kyoto [4]; [5]", "result": 0.395}, {"measurement": "thermal stability score", "setting": "HeLa Kyoto [4]; cell cycle stage: mitosis", "result": 0.256}]}, {"sequence": "MMRFMLLFSRQGKLRLQKWYLATSDKERKKMVRELMQVVLARKPKMCSFLEWRDLKVVYKRYASLYFCCAIEGQDNELITLELIHRYVELLDKYFGSVCELDIIFNFEKAYFILDEFLMGGDVQDTSKKSVLKAIEQADLLQEEDESPRSVLEEMGLA [AP1S1]", "values": [{"measurement": "solubility in G1/S (log2)", "setting": "HeLa Kyoto [1]", "result": -0.154}, {"measurement": "melting temperature", "setting": "HeLa Kyoto [2]; cell cycle stage: G1/S", "result": 53, "unit": "°C"}, {"measurement": "solubility change mitosis (log2)", "setting": "HeLa Kyoto [3]", "result": -0.0672}, {"measurement": "thermal stability score", "setting": "HeLa Kyoto [4]; [5]", "result": -1.3}, {"measurement": "thermal stability score", "setting": "HeLa Kyoto [4]; cell cycle stage: mitosis", "result": -0.738}]}, {"sequence": "MMSDEKNLGVSQKLVSPSRSTSSCSSKQGSRQDSWEVVEGLRGEMNYTQEPPVQKGFLLKKRKWPLKGWHKRFFYLDKGILKYAKSQTDIEREKLHGCIDVGLSVMSVKKSSKCIDLDTEEHIYHLKVKSEEVFDEWVSKLRHHRMYRQNEIAMFPHEVNHFFSGSTITDSSSGVFDSISSRKRSSISKQNLFQTGSNVSFSCGGETRVPLWLQSSEDMEKCSKDLAHCHAYLVEMSQLLQSMDVLHRTYSAPAINAIQGGSFESPKKEKRSHRRWRSRAIGKDAKGTLQVPKPFSGPVRLHSSNPNLSTLDFGEEKNYSDGSETSSEFSKMQEDLCHIAHKVYFTLRSAFNIMSAEREKLKQLMEQDASSSPSAQVIGLKNALSSALAQNTDLKERLRRIHAESLLLDSPAVAKSGDNLAEENSRDENRALVHQLSNESRLSITDSLSEFFDAQEVLLSPSSSENEISDDDSYVSDISDNLSLDNLSNDLDNERQTLGPVLDSGREAKSRRRTCLPAPCPSSSNISLWNILRNNIGKDLSKVAMPVELNEPLNTLQRLCEELEYSELLDKAAQIPSPLERMVYVAAFAISAYASSYYRAGSKPFNPVLGETYECIREDKGFQFFSEQVSHHPPISACHAESRNFVFWQDVRWKNKFWGKSMEIVPIGTTHVTLPVFGDHFEWNKVTSCIHNILSGQRWIEHYGEIVIKNLHDDSCYCKVNFIKAKYWSTNAHEIEGTVFDRSGKAVHRLFGKWHESIYCGGGSSSACVWRANPMPKGYEQYYSFTQFALELNEMDPSSKSLLPPTDTRFRPDQRFLEEGNLEEAEIQKQRIEQLQRERRRVLEENHVEHQPRFFRKSDDDSWVSNGTYLELRKDLGFSKLDHPVLW [OSBPL3]", "values": [{"measurement": "solubility in G1/S (log2)", "setting": "HeLa Kyoto [1]", "result": -0.196}, {"measurement": "melting temperature", "setting": "HeLa Kyoto [2]; cell cycle stage: G1/S", "result": 48.8, "unit": "°C"}, {"measurement": "melting temperature", "setting": "HeLa Kyoto [2]; cell cycle stage: mitosis", "result": 48.7, "unit": "°C"}, {"measurement": "solubility change mitosis (log2)", "setting": "HeLa Kyoto [3]", "result": -0.0655}, {"measurement": "thermal stability score", "setting": "HeLa Kyoto [4]; [5]", "result": 0.31}, {"measurement": "thermal stability score", "setting": "HeLa Kyoto [4]; cell cycle stage: mitosis", "result": 0.491}]}]}
